From paper PMC10855774, “Role of Spexin in White Adipose Tissue Thermogenesis under Basal and Cold-Stimulated Conditions” (International Journal of Molecular Sciences, 2024)

Key:
[1] = Adipose tissue depot mass percentage; assay type: in vivo, mice; details: SPX 29 µg/kg/day ten days, cold (4 °C); SPX-C relative to CTR and CTR-C; C × S p < 0.05
Procedure: (§1) Normal adult male C57BL/6 mice (four months of age) were kept in a temperature-controlled environment (20–22 °C and a fixed 12 h light/12 h dark cycle; lights on at 07:00 h) and fed ad libitum with Purina commercial rat/mouse chow (Ganave, Buenos Aires, Argentina, L0723/1). Mice were injected with SPX or PBS (29 µg/kg/day, Tocris, Bristol, UK) for ten days (the SPX and CTR groups, respectively). On the third day of the protocol, each group was subdivided into two other groups: one exposed to cold (4 °C, CTR-C and SPX-C, n = 12 mice for each group) and another one housed at RT (CTR and SPX, n = 15 mice for each group) (Figure 1). Food intake and body weight were measured every day. On the experimental day (day 10), the mice were euthanized under non-fasting conditions (08:00 to 09:00 h), and their trunk blood was collected; plasma samples were then frozen (–80 °C) until the metabolite measurement. Inguinal AT (IAT, subcutaneous depot), epididymal AT (EAT, visceral depot), and brown AT (BAT, subcutaneous depot) were aseptically dissected and weighed. These depots were kept at –80 °C for further procedures. Animals were euthanized according to protocols for animal use, in agreement with the NIH guidelines for the care and use of experimental animals. All experiments were approved by our Institutional Animal Care Committee (Approval code: 6NE-2023).

[2] = Daily caloric intake and body weight of SPX-treated mice at RT or cold; assay type: in vivo; details: for body weight change: C × S p < 0.05
Procedure: as §1

[3] = Plasma SPX levels (ELISA) after SPX injection; assay type: in vivo, mice
Procedure: Circulating glucose (Glu) and triglyceride (Tg) levels were measured using commercial kits (Wiener Lab., Rosario, Argentina). Plasma SPX was measured using a commercial ELISA kit (SPX: Phoenix pharmaceutical EK-023-81).
Supplementary figure 1. SPX levels (ng/ml, EIA Phoe nix pharmaceutical) after intraperitoneal injec tion with SPX (29 µg/kg). or Vehicle in mic e Different time points we r e evaluated after ip. Injections (10, 20, 60, 180, 360 minutes).
Supplementary Figure 2. ucp1 (a), pgc1α (b) and cox8b (c) mRNA expression in B AT. In all case s, t wo -wa y A N O VA wa s performed for factor (S or C) and interaction (S x C) analysis and deta iled below the graph only when s ig n if ica nt .. When interaction is statist icall y s ig n if ica nt , group to gr oup comparison wa s performed by Bonferroni test. ++++ P<0.0001 vs. CTR and ***P<0.001 vs. CTR-C (n=4- 6 m ice per group). […]

[4] = system: ucp1; test: UCP1 protein expression in EAT and IAT (Western blot); assay type: in vivo, mice
Procedure: as §1, with “Inguinal AT (IAT, subcutaneous depot), epididymal AT (EAT, visceral depot), and brown AT (BAT, subcutaneous depot) were aseptically dissected and weighed. These depots were kept at –80 °C for further procedures. Animals were euthanized according to protocols for animal use, in agreement with the NIH guidelines for the care and use of experimental animals. All experiments were approved by our Institutional Animal Care Committee (Approval code: 6NE-2023).” left out
For protein analysis by Western blot, IAT and EAT were lysed in a RIPA buffer supplemented with a protease and phosphatase inhibitor cocktail. Protein contents were quantified with the bicinchoninic acid method (Thermo Scientific, Pierce™ BCA Protein Assay Kit). […] Finally, relative protein levels were calculated using Image J Fiji software 1.54f.

[5] = system: beige precursors (PDGFRα+; EBF2+); test: Beige precursors (PDGFRα+; EBF2+) in the SVF by flow cytometry; assay type: in vivo, mice; details: SPX for 3 days prior to cold exposure; n = 4, t-test
Procedure: Fresh EAT pads were dissected, weighed, and digested with collagenase, as previously reported. Briefly, fat tissue was minced and digested using 1 mg/mL of the collagenase solution in DMEM (at 37 °C for 40–60 min). After centrifugation (1000 rpm for 15 min), the SVF pellets were filtered (in a 50-µm-mesh nylon cloth) and washed with DMEM (x3). SVF cells were then resuspended in DMEM supplemented with 10% (v/v) FBS, HEPES ([…]), 100 IU/mL of penicillin, and 100 µg/mL of streptomycin (basal medium) and reserved for the flow cytometry protocol.
The SVF was prepared as reported above and counted and filtered through a 70-μM cell strainer. To block unspecific binding, the cells were resuspended in 10% inactivated FBS in FACS buffer (1% BSA in PBS) for 10 min. Then, the cells were incubated with the surface antibody anti-Pdgfrα (CD140a)-PE/Cy7 (1:200, BioLegend, San Diego, CA, USA) and washed twice with FACS buffer, followed by centrifugation (300× g, 5 min). Fixation was performed with 2% paraformaldehyde in PBS for 20 min at room temperature. After washing, the cells were subjected to permeabilization with 0.1 % Triton X100 in PBS for 15 min at room temperature. […] The samples were analyzed on a FACS Calibur flow cytometer (BD bioscience, Franklin Lakes, NJ, USA). […]

[6] = system: ucp1, pgc1α, and prdm16; details: obese female mice treated with SPX for 50 days; cited from earlier work
From the text: (§2) Little is known about the role of SPX in thermogenesis. […] In the liver, results are contradictory. While one study has shown that SPX decreases pgc1α expression both in vivo and in vitro [26], another study has shown the opposite effect. Thus, the aim of this study was to evaluate the role of SPX during WAT thermogenesis under both room temperature (RT) and cold-stimul ...

[7] = system: β3-adrenergic receptors; details: obese female mice treated with SPX for 50 days; cited from earlier work
From the text: as §2

B1: Spexin (peptide, UniProt Q9BT56 27-116, looked up)
Spexin: APQRLLERRNWTPQAMLYLKGAQGRRFISDQSRRKDLSDRPLPERRSPNPQLLTIPEAATILLASLQKSPEDEEKNFDQTRFLEDSLLNW
modifications: Spexin
notes: novel adipokine, a peptide of 14 amino acids of the galanin family; purchased from Tocris
[1]
  BAT mass percentage: intermediate value
[2]; SPX and SPX-C mice, basal and cold-stimulated conditions, Pearson correlation, p < 0.01
  correlation between initial body weight and body weight loss after SPX treatment: significant positive correlation
[2]; male C57BL/6 mice, SPX 29 µg/kg/day for ten days, RT or cold (4 °C) from day 3, vs. CTR, repeated measures ANOVA, n = 6–9
  caloric intake: no differences were observed due to the SPX treatment
[2]; male C57BL/6 mice, SPX 29 µg/kg/day for ten days, basal conditions (RT), SPX vs. CTR
  body weight change: lost body weight vs. CTR ones
[2]; male C57BL/6 mice, SPX 29 µg/kg/day for ten days, cold (4 °C) from day 3, SPX-C vs. CTR-C
  body weight change: lost less weight than their CTR-C counterparts
[3]; day 10 of SPX 29 µg/kg/day, RT or cold, ELISA, n = 6–7
  plasma SPX levels at end of protocol: did not differ between groups
[3]; mice, single ip. injection SPX 29 µg/kg, 1 h, plasma ELISA
  plasma SPX levels 1 h after SPX injection vs. basal: two-fold higher than basal ones
[3]; mice, single ip. injection SPX 29 µg/kg, 3 h, plasma ELISA
  plasma SPX levels 3 h after SPX injection vs. basal: back to basal levels
[3]; mice, single ip. injection SPX 29 µg/kg, plasma ELISA at 10, 20, 60, 180, 360 minutes
  SPX half-life in plasma: short
[4]; basal and cold conditions, p < 0.05, n = 4–6
  UCP1 protein levels in EAT (Western blot): reduced the UCP1 protein levels at both basal and cold conditions
[4]; cold, SPX-C intermediate between CTR and CTR-C, C × S p < 0.05
  UCP1 protein levels in IAT (Western blot): partial decrease in UCP1 levels
[5]
  abundance (%) of beige precursors in the SVF of EAT: no changes were observed in either of the two AT depots studied
  abundance (%) of beige precursors in the SVF of IAT: no changes were observed in either of the two AT depots studied
[6]
  ucp1, pgc1α, and prdm16 expressions in BAT: decreased
[7]
  immunodetection of β3-adrenergic receptors in gonadal WAT: lower immunodetection
